In paper PMC6553639 (Science signaling, 2018):
Positions count from the first letter of the chain named. No end group written: not given here. *: point of attachment. FITC = O=C1OC2(c3ccc(O)cc3Oc3cc(O)ccc32)c2ccc(NC(=S)*)cc21

B1: His6MBP-C/EBPα(53–75) (peptide, UniProt P49715 53-75, looked up)
chain: GGICEHETSIDISAYIDPAAFND
B2: C/EBPδ(50–72) fused to MBP (peptide, UniProt P49716 50-72, looked up)
chain: PAMYDDESAIDFSAYIDSMAAVP
B3: C/EBPε(31–53) fused to MBP (peptide, UniProt Q15744 31-53, looked up)
chain: GDMCEHEASIDLSAYIESGEEQL
B4: FITC-TRIB1(349–367) (peptide, UniProt Q96RU8 349-367, looked up)
peptide: {FITC}-SEIGTSDQIVPEYQEDSDI
B5: TRIB1 peptide (residues 349 to 367) (peptide, UniProt Q96RU8 349-367, looked up)
peptide: SEIGTSDQIVPEYQEDSDI
B6: C/EBPα degron peptide (53 to 75) (peptide, UniProt P49715 53-75, looked up)
peptide: GGICEHETSIDISAYIDPAAFND

Assays:
[1] = molecular target: T1, GST-TRIB1(84–372) wild type (human, UniProt Q96RU8 84-372); assay: pull-down
T1 sequence (looked up): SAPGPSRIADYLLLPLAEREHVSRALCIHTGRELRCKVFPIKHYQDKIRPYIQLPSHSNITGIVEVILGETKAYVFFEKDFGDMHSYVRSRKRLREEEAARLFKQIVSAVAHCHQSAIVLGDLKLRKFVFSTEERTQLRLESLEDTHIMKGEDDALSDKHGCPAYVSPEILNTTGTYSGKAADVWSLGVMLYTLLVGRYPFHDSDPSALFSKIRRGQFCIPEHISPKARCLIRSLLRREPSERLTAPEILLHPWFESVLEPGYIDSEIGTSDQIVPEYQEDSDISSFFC

GST-TRIB1(84–372) S240W = molecular target: T2, GST-TRIB1(84–372) S240W (human, UniProt Q96RU8 84-372, S240W); assay: pull-down
T2 sequence (looked up): T1 sequence (looked up) with S157W

TRIB1(84–372) [2] = molecular target: T3, TRIB1(84–372) (human, UniProt Q96RU8 84-372); assay: ITC
T3 sequence (looked up): T1 sequence (looked up)

[3] = molecular target: COP1 WD40 domain (376–731) (UniProt Q8NHY2 376-731); assay: fluorescence polarisation
TRIB1(84–372) [4] = molecular target: T3, TRIB1(84–372); assay: differential scanning fluorimetry

Chain of COP1 WD40 domain (376–731) (Q8NHY2 376-731): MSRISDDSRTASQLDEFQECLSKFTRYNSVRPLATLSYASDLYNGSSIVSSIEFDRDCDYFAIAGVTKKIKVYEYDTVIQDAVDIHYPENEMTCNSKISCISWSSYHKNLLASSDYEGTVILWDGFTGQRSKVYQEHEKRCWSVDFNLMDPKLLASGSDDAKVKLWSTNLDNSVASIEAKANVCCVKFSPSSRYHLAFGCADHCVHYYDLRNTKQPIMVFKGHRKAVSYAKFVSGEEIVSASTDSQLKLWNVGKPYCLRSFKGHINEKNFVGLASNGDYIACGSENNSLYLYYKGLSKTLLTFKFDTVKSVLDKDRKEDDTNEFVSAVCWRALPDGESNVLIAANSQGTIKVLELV

Binder | binding result (TRIB1(84–372) [2]) | binding result [3] | also measured
B1 | binds | – | binding result [1]: binds; binding result (GST-TRIB1(84–372) S240W): binds
B2 | binds | – | –
B3 | binds | – | –
B4 | – | binds | –
B5 | – | binds | –
B6 | – | – | binding result (TRIB1(84–372) [4]): binds
